Here are results for four molecules from patent US8030025B2, “Antibodies directed to angiopoietin-1 and angiopoietin-2 and uses thereof” (Amgen Inc., dated 2011).

Common to all, as to assay: neutralization ELISA; coated angiopoietin vs Tie2-Fc
On the technique in general: In an ELISA, binding on a coated surface is turned into a signal by an enzyme label.

Test [1] addresses Murine Ang1 (mouse, UniProt O08538).
Test [2] deals with Rabbit Ang1 (rabbit, UniProt G1SK98).
In test [3] the target is Cyno Ang1 (cynomolgus monkey, UniProt A0A2K5VW43).
In test [4] the target is Human Ang1 (human, UniProt Q15389).
Test [5] addresses Rabbit Ang2 (rabbit, UniProt G1T9B3).
For test [6], the target named is Human Ang2 (human, UniProt O15123).
Test [7] addresses Cyno Ang2 (cynomolgus monkey, UniProt A0A2K5VNX6).
Test [8] has as its target Murine Ang2 (mouse, UniProt O35608).

Changes are numbered by the printed parent chain.

B1: H6L7 (IgG2) (antibody, V domains shown)
VH: EVQLVQSGGGVVQPGRSLRLSCAASGFTFSSYGMHWVRQAPGKGLEWVSYISSSGSTIYYADSVKGRFTISRDNAKNSLYLQMNSLRAEDTAVYYCARDLLDYDIYTGYGYWGQGTLVTVSS
VL: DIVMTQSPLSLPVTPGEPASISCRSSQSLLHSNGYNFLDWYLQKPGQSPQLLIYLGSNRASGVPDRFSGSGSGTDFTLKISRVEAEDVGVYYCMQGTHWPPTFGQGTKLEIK
For the molecule B1, the IC50 in test [1] is 0.12 nM; in test [2], 0.18 nM; in test [3], 0.19 nM; in test [4], 0.12 nM; in test [5], 0.15 nM; in test [6] it was 0.22 nM. Besides, the IC50 in test [7] came out at 0.19 nM; in test [8], 0.13 nM.

B2: 536 LC1 (antibody, V domains shown)
VH: B1 VH with Y106L
VL: not shown
For B2, the IC50 came to 305 nM in test [1]; 502 nM in test [2]; 531 nM in test [3]; 515 nM in test [4]; 0.2 nM in test [5]; 0.27 nM in test [6]. The IC50 turned out to be 0.19 nM in test [7] and 0.14 nM in test [8].

B3: H4L4 (IgG2) (antibody, V domains shown)
VH: B1 VH with I105L, Y106L
VL: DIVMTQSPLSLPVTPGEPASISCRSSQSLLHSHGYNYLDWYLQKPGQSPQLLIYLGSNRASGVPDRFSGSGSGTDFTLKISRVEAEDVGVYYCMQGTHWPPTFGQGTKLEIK
Consider B3, for which the IC50 stood at 3.3 nM in test [1]; 2.8 nM in test [2]; 4 nM in test [3]; 3.2 nM in test [4]; 0.15 nM in test [5]; 0.22 nM in test [6]. The IC50 in test [7] came out at 0.24 nM; in test [8], 0.15 nM.

B4: H4L11 (IgG2) (antibody, V domains shown)
VH: B1 VH with I105L, Y106L
VL: not shown
On to B4, for which the IC50 in test [1] worked out at 7.7 nM; in test [2], 16 nM; in test [4] it was 17 nM; in test [5] it was 0.12 nM; in test [6], 0.21 nM; in test [7] it was 0.16 nM. Also, the half-inhibitory concentration (IC50) in test [8] is 0.12 nM.

By IC50 is commonly meant the concentration that gives 50% inhibition.
